Changes are numbered by the printed parent chain.
Test system: Pseudomonas fluorescens HPPD polypeptide (wild-type and mutants)
Assay: Coupled HPPD activity assay: turnover and residual turnover in crude HPPD polypeptide extracts with and without Cmpd. 1
Assay type: biochemical
Conditions: for Residual turnover [%]: 100 μM Cmpd. 1, normalised to turnover without inhibitor; for Turnover: absence of Cmpd. 1; for Turnover / Residual turnover: changes in absorbance (OD) at 320 nm in the coupled assay, 30 min; for Residual turnover: presence of 100 μM Cmpd. 1

B1: SEQ ID NO:32 (protein)
chain: MADLYENPMGLMGFEFIEFASPTPGTLEPIFEIMGFTKVATHRSKNVHLYRQGEINLILNNEPNSIASYFAAEHGPSVCGMAFRVKDSQKAYNRALELGAQPIHIDTGPMELNLPAIKGIGGAPLYLIDRFGEGSSIYDIDFVYLEGVERNPVGAGLKVIDHLTHNVYRGRMVYWANFYEKLFNFREARYFDIKGEYTGLTSKAMSAPDGMIRIPLNEESSKGAGQIEEFLMQFNGEGIQHVAFLTDDLVKTWDALKKIGMRFMTAPGDEYYEMLEGRLPDHGEPVDQLQARGILLDGSSVEGDKRLLLQIFSEQLMGPVFFEFIQRKGDDGFGPHSFKVLFESMERDQVRRGVLTAD
modifications: mutant HPPD polypeptide
  Residual turnover [%]: 57%
  Turnover: 0.269
  Residual turnover: 0.154

B2: SEQ ID NO:56 (protein)
chain: B1 chain with M264L, S344Q
modifications: mutant HPPD polypeptide
  Residual turnover [%]: 75%
  Turnover: 0.339
  Residual turnover: 0.253

B3: SEQ ID NO:51 (protein)
chain: B1 chain with P215A, M345I
modifications: mutant HPPD polypeptide
  Residual turnover [%]: 61%
  Turnover: 0.173
  Residual turnover: 0.106

B4: SEQ ID NO:69 (protein)
chain: B1 chain with R213K, H336D, M345I
modifications: mutant HPPD polypeptide
  Residual turnover [%]: 40%
  Turnover: 0.173
  Residual turnover: 0.069

B5: SEQ ID NO:34 (protein)
chain: B1 chain with Q315T
modifications: mutant HPPD polypeptide
  Residual turnover [%]: 53%
  Turnover: 0.278
  Residual turnover: 0.148

B6: SEQ ID NO:46 (protein)
chain: B1 chain with R213K, Q315K, H336D, M345I
modifications: mutant HPPD polypeptide
  Residual turnover [%]: 36%
  Turnover: 0.162
  Residual turnover: 0.059

B7: SEQ ID NO:43 (protein)
chain: B1 chain with R213K, Q315K
modifications: mutant HPPD polypeptide
  Residual turnover [%]: 54%
  Turnover: 0.291
  Residual turnover: 0.157

B8: SEQ ID NO:50 (protein)
chain: B1 chain with R213K, Q315T, M345I
modifications: mutant HPPD polypeptide
  Residual turnover [%]: 54%
  Turnover: 0.272
  Residual turnover: 0.148

B9: SEQ ID NO:60 (protein)
chain: B1 chain with R213K, M264L, Q315K, H336D, S344Q
modifications: mutant HPPD polypeptide
  Residual turnover [%]: 56%
  Turnover: 0.252
  Residual turnover: 0.14

B10: SEQ ID NO:47 (protein)
chain: B1 chain with R213K, Q315R, H336D, M345I
modifications: mutant HPPD polypeptide
  Residual turnover [%]: 68%
  Turnover: 0.09
  Residual turnover: 0.061

B11: SEQ ID NO:45 (protein)
chain: B1 chain with R213K, Q315T
modifications: mutant HPPD polypeptide
  Residual turnover [%]: 60%
  Turnover: 0.275
  Residual turnover: 0.164

B12: SEQ ID NO:64 (protein)
chain: B1 chain with R213K, M264L
modifications: mutant HPPD polypeptide
  Residual turnover [%]: 61%
  Turnover: 0.295
  Residual turnover: 0.181

B13: SEQ ID NO:44 (protein)
chain: B1 chain with R213K
modifications: mutant HPPD polypeptide
  Residual turnover [%]: 54%
  Turnover: 0.272
  Residual turnover: 0.148

B14: SEQ ID NO:63 (protein)
chain: B1 chain with R213K, P215A, M264L, Q315K, S344Q
modifications: mutant HPPD polypeptide
  Residual turnover [%]: 67%
  Turnover: 0.209
  Residual turnover: 0.139

B15: SEQ ID NO:48 (protein)
chain: B1 chain with R213K, Q315T, H336D, M345I
modifications: mutant HPPD polypeptide
  Residual turnover [%]: 38%
  Turnover: 0.161
  Residual turnover: 0.061

B16: SEQ ID NO:37 (protein)
chain: B1 chain with Q315R, S344Q
modifications: mutant HPPD polypeptide
  Residual turnover [%]: 42%
  Turnover: 0.106
  Residual turnover: 0.045

B17: SEQ ID NO:49 (protein)
chain: B1 chain with R213K, M345I
modifications: mutant HPPD polypeptide
  Residual turnover [%]: 52%
  Turnover: 0.318
  Residual turnover: 0.165

B18: SEQ ID NO:41 (protein)
chain: B1 chain with R213K, Q315R, H336D
modifications: mutant HPPD polypeptide
  Residual turnover [%]: 43%
  Turnover: 0.247
  Residual turnover: 0.105

B19: SEQ ID NO:68 (protein)
chain: B1 chain with R213K, P215A, M264L, H336D, S344Q, M345I
modifications: mutant HPPD polypeptide
  Residual turnover [%]: 74%
  Turnover: 0.182
  Residual turnover: 0.134

B20: SEQ ID NO:42 (protein)
chain: B1 chain with R213K, Q315T, H336D
modifications: mutant HPPD polypeptide
  Residual turnover [%]: 33%
  Turnover: 0.209
  Residual turnover: 0.068

B21: SEQ ID NO:39 (protein)
chain: B1 chain with R213K, Q315K, H336D
modifications: mutant HPPD polypeptide
  Residual turnover [%]: 32%
  Turnover: 0.176
  Residual turnover: 0.057

B22: SEQ ID NO:66 (protein)
chain: B1 chain with M264L, H336D, S344Q, M345I
modifications: mutant HPPD polypeptide
  Residual turnover [%]: 65%
  Turnover: 0.187
  Residual turnover: 0.122

B23: SEQ ID NO:54 (protein)
chain: B1 chain with M264L, Q315K, S344Q
modifications: mutant HPPD polypeptide
  Residual turnover [%]: 82%
  Turnover: 0.274
  Residual turnover: 0.224

B24: SEQ ID NO:59 (protein)
chain: B1 chain with M264L, Q315K, H336D, S344Q
modifications: mutant HPPD polypeptide
  Residual turnover [%]: 59%
  Turnover: 0.215
  Residual turnover: 0.126

B25: SEQ ID NO:65 (protein)
chain: B1 chain with M264L, Q315K, H336D, S344Q, M345I
modifications: mutant HPPD polypeptide
  Residual turnover [%]: 60%
  Turnover: 0.204
  Residual turnover: 0.123

B26: SEQ ID NO:67 (protein)
chain: B1 chain with P215A, M264L, H336D, M345V
modifications: mutant HPPD polypeptide
  Residual turnover [%]: 90%
  Turnover: 0.141
  Residual turnover: 0.127

B27: SEQ ID NO:33 (protein)
chain: B1 chain with Q315R
modifications: mutant HPPD polypeptide
  Turnover: 0.015
  Residual turnover: 0.014

B28: SEQ ID NO:40 (protein)
chain: B1 chain with R213K, H336D
modifications: mutant HPPD polypeptide
  Residual turnover [%]: 36%
  Turnover: 0.204
  Residual turnover: 0.073

B29: SEQ ID NO:52 (protein)
chain: B1 chain with P215A, Q315R, M345I
modifications: mutant HPPD polypeptide
  Residual turnover [%]: 61%
  Turnover: 0.173
  Residual turnover: 0.105

B30: SEQ ID NO:55 (protein)
chain: B1 chain with M264L, Q315K
modifications: mutant HPPD polypeptide
  Residual turnover [%]: 58%
  Turnover: 0.303
  Residual turnover: 0.177

B31: SEQ ID NO:58 (protein)
chain: B1 chain with R213K, M264L, S344Q
modifications: mutant HPPD polypeptide
  Residual turnover [%]: 81%
  Turnover: 0.339
  Residual turnover: 0.276

B32: SEQ ID NO:53 (protein)
chain: B1 chain with M264L, Q315T, S344Q
modifications: mutant HPPD polypeptide
  Residual turnover [%]: 73%
  Turnover: 0.339
  Residual turnover: 0.246
